Results from patent publication US20230407373A1 (priority 2020, published 2023).
Where two headings read alike, the source gives them in different places.

System: HCoV-OC43 gRNA and sgRNA
Type: binding
Conditions: for target (unweighted spectral count): OC43 Probe II, infected cells; for target (unweighted spectral count) / target (unweighted spectral count, OC43 Probe II capture): tested against no-probe control; for target (unweighted spectral count, OC43 Probe II capture): FDR<10%

B1: HNANPA3 (protein, UniProt P51991 1-378, looked up)
Heterogeneous nuclear …: MEVKPPPGRPQPDSGRRRRRRGEEGHDPKEPEQLRKLFIGGLSFETTDDSLREHFEKWGTLTDCVVMRDPQTKRSRGFGFVTYSCVEEVDAAMCARPHKVDGRVVEPKRAVSREDSVKPGAHLTVKKIFVGGIKEDTEEYNLRDYFEKYGKIETIEVMEDRQSGKKRGFAFVTFDDHDTVDKIVVQKYHTINGHNCEVKKALSKQEMQSAGSQRGRGGGSGNFMGRGGNFGGGGGNFGRGGNFGGRGGYGGGGGGSRGSYGGGDGGYNGFGGDGGNYGGGPGYSSRGGYGGGGPGYGNQGGGYGGGGGYDGYNEGGNFGGGNYGGGGNYNDFGNYSGQQQSNYGPMKGGSFGGRSSGSPYGGGYGSGGGSGGYGSRRF
target (unweighted spectral count) (12 hpi (type n_12_v)): 14

B2: HMGB1 (protein, UniProt P09429 1-215, looked up)
High mobility group protein B1: MGKGDPKKPRGKMSSYAFFVQTCREEHKKKHPDASVNFSEFSKKCSERWKTMSAKEKGKFEDMAKADKARYEREMKTYIPPKGETKKKFKDPNAPKRPPSAFFLFCSEYRPKIKGEHPGLSIGDVAKKLGEMWNNTAADDKQPYEKKAAKLKEKYEKDIAAYRAKGKPDAAKKGVVKAEKSKKKKEEEEDEEDEEDEEEEEDEEDEDEEEDDDDE
target (unweighted spectral count) (12 hpi (type n_12_v)): 7
target (unweighted spectral count) (24 hpi (type n_24_v)): 6

B3: MTDH (protein, UniProt Q86UE4 1-582, looked up)
Protein LYRIC: MAARSWQDELAQQAEEGSARLREMLSVGLGFLRTELGLDLGLEPKRYPGWVILVGTGALGLLLLFLLGYGWAAACAGARKKRRSPPRKREEAAAVPAAAPDDLALLKNLRSEEQKKKNRKKLSEKPKPNGRTVEVAEGEAVRTPQSVTAKQPPEIDKKNEKSKKNKKKSKSDAKAVQNSSRHDGKEVDEGAWETKISHREKRQQRKRDKVLTDSGSLDSTIPGIENTITVTTEQLTTASFPVGSKKNKGDSHLNVQVSNFKSGKGDSTLQVSSGLNENLTVNGGGWNEKSVKLSSQISAGEEKWNSVSPASAGKRKTEPSAWSQDTGDANTNGKDWGRSWSDRSIFSGIGSTAEPVSQSTTSDYQWDVSRNQPYIDDEWSGLNGLSSADPNSDWNAPAEEWGNWVDEERASLLKSQEPIPDDQKVSDDDKEKGEGALPTGKSKKKKKKKKKQGEDNSTAQDTEELEKEIREDLPVNTSKTRPKQEKAFSLKTISTSDPAEVLVKNSQPIKTLPPATSTEPSVILSKSDSDKSSSQVPPILQETDKSKSNTKQNSVPPSQTKSETSWESPKQIKKKKKARRET
target (unweighted spectral count, OC43 Probe II capture) (24 hpi, type n_24_v): 5
target (unweighted spectral count, OC43 Probe II capture) (36 hpi, type n_36_v): 6
target (unweighted spectral count, OC43 Probe II) (type n_48_v, 48 hpi, OC43 Probe II capture on infected cells): 6
background (unweighted spectral count, no-probe control) (type n_48_v, 48 hpi, no-probe control on infected cells): 1

B4: LMNA (protein, UniProt P02545 1-661, looked up)
Prelamin-A/C: METPSQRRATRSGAQASSTPLSPTRITRLQEKEDLQELNDRLAVYIDRVRSLETENAGLRLRITESEEVVSREVSGIKAAYEAELGDARKTLDSVAKERARLQLELSKVREEFKELKARNTKKEGDLIAAQARLKDLEALLNSKEAALSTALSEKRTLEGELHDLRGQVAKLEAALGEAKKQLQDEMLRRVDAENRLQTMKEELDFQKNIYSEELRETKRRHETRLVEIDNGKQREFESRLADALQELRAQHEDQVEQYKKELEKTYSAKLDNARQSAERNSNLVGAAHEELQQSRIRIDSLSAQLSQLQKQLAAKEAKLRDLEDSLARERDTSRRLLAEKEREMAEMRARMQQQLDEYQELLDIKLALDMEIHAYRKLLEGEEERLRLSPSPTSQRSRGRASSHSSQTQGGGSVTKKRKLESTESRSSFSQHARTSGRVAVEEVDEEGKFVRLRNKSNEDQSMGNWQIKRQNGDDPLLTYRFPPKFTLKAGQVVTIWAAGAGATHSPPTDLVWKAQNTWGCGNSLRTALINSTGEEVAMRKLVRSVTVVEDDEDEDGDDLLHHHHGSHCSSSGDPAEYNLRSRTVLCGTCGQPADKASASGSGAQVGGPISSGSSASSVTVTRSYRSVGGSGGGSFGDNLVTRSYLLGNSSPRTQSPQNC
target (unweighted spectral count) (12 hpi (type n_12_v)): 7
target (unweighted spectral count) (24 hpi (type n_24_v)): 8

B5: KRT9 (protein, UniProt P35527 1-623, looked up)
Keratin, type I cytoskeletal 9: MSCRQFSSSYLSRSGGGGGGGLGSGGSIRSSYSRFSSSGGGGGGGRFSSSSGYGGGSSRVCGRGGGGSFGYSYGGGSGGGFSASSLGGGFGGGSRGFGGASGGGYSSSGGFGGGFGGGSGGGFGGGYGSGFGGFGGFGGGAGGGDGGILTANEKSTMQELNSRLASYLDKVQALEEANNDLENKIQDWYDKKGPAAIQKNYSPYYNTIDDLKDQIVDLTVGNNKTLLDIDNTRMTLDDFRIKFEMEQNLRQGVDADINGLRQVLDNLTMEKSDLEMQYETLQEELMALKKNHKEEMSQLTGQNSGDVNVEINVAPGKDLTKTLNDMRQEYEQLIAKNRKDIENQYETQITQIEHEVSSSGQEVQSSAKEVTQLRHGVQELEIELQSQLSKKAALEKSLEDTKNRYCGQLQMIQEQISNLEAQITDVRQEIECQNQEYSLLLSIKMRLEKEIETYHNLLEGGQEDFESSGAGKIGLGGRGGSGGSYGRGSRGGSGGSYGGGGSGGGYGGGSGSRGGSGGSYGGGSGSGGGSGGGYGGGSGGGHSGGSGGGHSGGSGGNYGGGSGSGGGSGGGYGGGSGSRGGSGGSHGGGSGFGGESGGSYGGGEEASGSGGGYGGGSGKSSHS
target (unweighted spectral count) (24 hpi (type n_24_v)): 53

B6: DRX30 (protein, UniProt Q7L2E3 1-1194, looked up)
ATP-dependent RNA helicase …: MFSLDSFRKDRAQHRQRQCKLPPPRLPPMCVNPTPGGTISRASRDLLKEFPQPKNLLNSVIGRALGISHAKDKLVYVHTNGPKKKKVTLHIKWPKSVEVEGYGSKKIDAERQAAAAACQLFKGWGLLGPRNELFDAAKYRVLADRFGSPADSWWRPEPTMPPTSWRQLNPESIRPGGPGGLSRSLGREEEEDEEEELEEGTIDVTDFLSMTQQDSHAPLRDSRGSSFEMTDDDSAIRALTQFPLPKNLLAKVIQIATSSSTAKNLMQFHTVGTKTKLSTLTLLWPCPMTFVAKGRRKAEAENKAAALACKKLKSLGLVDRNNEPLTHAMYNLASLRELGETQRRPCTIQVPEPILRKIETFLNHYPVESSWIAPELRLQSDDILPLGKDSGPLSDPITGKPYVPLLEAEEVRLSQSLLELWRRRGPVWQEAPQLPVDPHRDTILNAIEQHPVVVISGDTGCGKTTRIPQLLLERYVTEGRGARCNVIITQPRRISAVSVAQRVSHELGPSLRRNVGFQVRLESKPPSRGGALLFCTVGILLRKLQSNPSLEGVSHVIVDEVHERDVNTDFLLILLKGLQRLNPALRLVLMSATGDNERFSRYFGGCPVIKVPGFMYPVKEHYLEDILAKLGKHQYLHRHRHHESEDECALDLDLVTDLVLHIDARGEPGGILCFLPGWQEIKGVQQRLQEALGMHESKYLILPVHSNIPMMDQKAIFQQPPVGVRKIVLATNIAETSITINDIVHVVDSGLHKEERYDLKTKVSCLETVWVSRANVIQRRGRAGRCQSGFAYHLFPRSRLEKMVPFQVPEILRTPLENLVLQAKIHMPEKTAVEFLSKAVDSPNIKAVDEAVILLQEIGVLDQREYLTTLGQRLAHISTDPRLAKAIVLAAIFRCLHPLLVVVSCLTRDPFSSSLQNRAEVDKVKALLSHDSGSDHLAFVRAVAGWEEVLRWQDRSSRENYLEENLLYAPSLRFIHGLIKQFSENIYEAFLVGKPSDCTLASAQCNEYSEEEELVKGVLMAGLYPNLIQVRQGKVTRQGKFKPNSVTYRTKSGNILLHKSTINREATRLRSRWLTYFMAVKSNGSVFVRDSSQVHPLAVLLLTDGDVHIRDDGRRATISLSDSDLLRLEGDSRTVRLLKELRRALGRMVERSLRSELAALPPSVQEEHGQLLALLAELLRGPCGSFDVRKTADD
target (unweighted spectral count) (24 hpi (type n_24_v)): 10

B7: KRT1 (protein, UniProt P04264 2-644, looked up)
Keratin, type II cytoskeletal …: SRQFSSRSGYRSGGGFSSGSAGIINYQRRTTSSSTRRSGGGGGRFSSCGGGGGSFGAGGGFGSRSLVNLGGSKSISISVARGGGRGSGFGGGYGGGGFGGGGFGGGGFGGGGIGGGGFGGFGSGGGGFGGGGFGGGGYGGGYGPVCPPGGIQEVTINQSLLQPLNVEIDPEIQKVKSREREQIKSLNNQFASFIDKVRFLEQQNQVLQTKWELLQQVDTSTRTHNLEPYFESFINNLRRRVDQLKSDQSRLDSELKNMQDMVEDYRNKYEDEINKRTNAENEFVTIKKDVDGAYMTKVDLQAKLDNLQQEIDFLTALYQAELSQMQTQISETNVILSMDNNRSLDLDSIIAEVKAQYEDIAQKSKAEAESLYQSKYEELQITAGRHGDSVRNSKIEISELNRVIQRLRSEIDNVKKQISNLQQSISDAEQRGENALKDAKNKLNDLEDALQQAKEDLARLLRDYQELMNTKLALDLEIATYRTLLEGEESRMSGECAPNVSVSVSTSHTTISGGGSRGGGGGGYGSGGSSYGSGGGSYGSGGGGGGGRGSYGSGGSSYGSGGGSYGSGGGGGGHGSYGSGSSSGGYRGGSGGGGGGSSGGRGSGGGSSGGSIGGRGSSSGGVKSSGGSSSVKFVSTTYSGVTR
target (unweighted spectral count, OC43 Probe II capture) (24 hpi, type n_24_v): 49

B8: KRT14 (protein, UniProt P02533 1-472, looked up)
Keratin, type I cytoskeletal …: MTTCSRQFTSSSSMKGSCGIGGGIGGGSSRISSVLAGGSCRAPSTYGGGLSVSSSRFSSGGACGLGGGYGGGFSSSSSSFGSGFGGGYGGGLGAGLGGGFGGGFAGGDGLLVGSEKVTMQNLNDRLASYLDKVRALEEANADLEVKIRDWYQRQRPAEIKDYSPYFKTIEDLRNKILTATVDNANVLLQIDNARLAADDFRTKYETELNLRMSVEADINGLRRVLDELTLARADLEMQIESLKEELAYLKKNHEEEMNALRGQVGGDVNVEMDAAPGVDLSRILNEMRDQYEKMAEKNRKDAEEWFFTKTEELNREVATNSELVQSGKSEISELRRTMQNLEIELQSQLSMKASLENSLEETKGRYCMQLAQIQEMIGSVEEQLAQLRCEMEQQNQEYKILLDVKTRLEQEIATYRRLLEGEDAHLSSSQFSSGSQSSRDVTSSSRQIRTKVMDVHDGKVVSTHEQVLRTKN
target (unweighted spectral count, OC43 Probe II capture) (24 hpi, type n_24_v): 7

B9: HNANPA0 (protein, UniProt Q13151 1-305, looked up)
Heterogeneous nuclear …: MENSQLCKLFIGGLNVQTSESGLRGHFEAFGTLTDCVVVVNPQTKRSRCFGFVTYSNVEEADAAMAASPHAVDGNTVELKRAVSREDSARPGAHAKVKKLFVGGLKGDVAEGDLIEHFSQFGTVEKAEIIADKQSGKKRGFGFVYFQNHDAADKAAVVKFHPIQGHRVEVKKAVPKEDIYSGGGGGGSRSSRGGRGGRGRGGGRDQNGLSKGGGGGYNSYGGYGGGGGGGYNAYGGGGGGSSYGGSDYGNGFGGFGSYSQHQSSYGPMKSGGGGGGGGSSWGGRSNSGPYRGGYGGGGGYGGSSF
target (unweighted spectral count) (12 hpi (type n_12_v)): 5
target (unweighted spectral count) (24 hpi (type n_24_v)): 7
